Measured values published in patent US20230406937A1 (JANUX THERAPEUTICS, published 2023).

Assays:
biotinylated human PD-L1 = target: T1, biotinylated human PD-L1 (human, UniProt Q9NZQ7 19-238, limits assumed, biotinylated (site not stated)); test: ELISA, biotinylated antigen captured on neutravidin plates, HRP secondary antibody
T1 construct: also called Human PDL1-biotin
Method: (§1) The polypeptide complex molecules were evaluated for their ability to bind human PDL1 or CD28 in a standard enzyme linked immunosorbent assay (ELISA) format. […] Polypeptide complex molecules diluted in buffer were then added to the antigen coated plates. Bound polypeptide complex was detected using a standard horse radish peroxidase conjugate secondary antibody.

biotinylated human CD28 = target: T2, biotinylated human CD28 (human, UniProt P10747 19-152, limits assumed, biotinylated (site not stated)); test: as above
T2 construct: also called Human CD28-Biotin
Method: as §1

B1: Ab-5 (bispecific antibody)
light: QSALTQPASVSGSPGQSITISCTGTSSDVGGYNYVSWYQQHPGKAPKLMIYDVSNRPSGVSNRFSGSKSGNTASLTISGLQAEDEADYYCSSYTSSSTRVFGTGTKVTVLGQPKANPTVTLFPPSSEELQANKATLVCLISDFYPGAVTVAWKADGSPVKAGVETTKPSKQSNNKYAASSYLSLTPEQWKSHRSYSCQVTHEGSTVEKTVAPTECS
heavy: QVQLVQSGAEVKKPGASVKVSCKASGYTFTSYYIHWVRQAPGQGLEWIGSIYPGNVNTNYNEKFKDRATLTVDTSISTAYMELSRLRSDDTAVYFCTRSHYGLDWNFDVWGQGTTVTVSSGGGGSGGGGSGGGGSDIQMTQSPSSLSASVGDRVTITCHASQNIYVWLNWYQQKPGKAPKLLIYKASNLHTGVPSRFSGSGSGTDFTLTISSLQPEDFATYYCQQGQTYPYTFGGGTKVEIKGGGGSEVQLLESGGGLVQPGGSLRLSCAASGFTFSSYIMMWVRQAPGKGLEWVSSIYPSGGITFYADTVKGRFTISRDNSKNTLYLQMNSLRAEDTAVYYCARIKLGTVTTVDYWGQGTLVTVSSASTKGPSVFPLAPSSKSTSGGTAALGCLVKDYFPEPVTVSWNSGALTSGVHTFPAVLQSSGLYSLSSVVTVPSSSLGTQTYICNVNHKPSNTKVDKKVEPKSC
notes: Anti-CD28 scFv fused to the heavy chain of anti-PD-L1 Fab 3; no Fc
B1 was tested, and the EC50 (biotinylated human PD-L1) was 0.11 nM and the EC50 (biotinylated human CD28) was 0.91 nM.

B2: Ab-6 (bispecific antibody)
light: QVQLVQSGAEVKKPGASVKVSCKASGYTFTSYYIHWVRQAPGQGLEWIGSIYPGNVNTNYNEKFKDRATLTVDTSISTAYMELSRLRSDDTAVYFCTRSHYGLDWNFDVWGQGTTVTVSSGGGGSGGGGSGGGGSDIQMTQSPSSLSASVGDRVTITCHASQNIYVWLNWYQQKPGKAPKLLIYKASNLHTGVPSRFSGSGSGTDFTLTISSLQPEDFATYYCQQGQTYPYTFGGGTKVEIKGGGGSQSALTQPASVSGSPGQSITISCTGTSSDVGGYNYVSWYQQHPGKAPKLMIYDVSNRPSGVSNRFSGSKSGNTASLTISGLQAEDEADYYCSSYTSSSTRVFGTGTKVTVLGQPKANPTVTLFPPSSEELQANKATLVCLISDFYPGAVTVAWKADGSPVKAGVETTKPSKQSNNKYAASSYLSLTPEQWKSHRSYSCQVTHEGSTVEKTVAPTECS
heavy: EVQLLESGGGLVQPGGSLRLSCAASGFTFSSYIMMWVRQAPGKGLEWVSSIYPSGGITFYADTVKGRFTISRDNSKNTLYLQMNSLRAEDTAVYYCARIKLGTVTTVDYWGQGTLVTVSSASTKGPSVFPLAPSSKSTSGGTAALGCLVKDYFPEPVTVSWNSGALTSGVHTFPAVLQSSGLYSLSSVVTVPSSSLGTQTYICNVNHKPSNTKVDKKVEPKSC
notes: Anti-CD28 scFv fused to the light chain of anti-PD-L1 Fab 3; no Fc
B2 showed an EC50 (biotinylated human PD-L1) of 0.28 nM and an EC50 (biotinylated human CD28) of 1.89 nM.
